In assay [1] the target is murine Mpl receptor, full length, expressed on 32D cells (subclone 1A6.1) (murine) (UniProt Q08351).
Assay [2] concerns the target human Mpl receptor, full length, on cells (human) (UniProt P40238).
Assay [3] has as its target murine Mpl receptor, full length, expressed on 32D cells (subclone 1A6.1) (murine) (UniProt Q08351). The source holds these as a separate data set.
The target in assay [4] is human Mpl receptor, full length, on cells (human, UniProt P40238). In words: cell-based or functional assay.
The target in assay [5] is murine Mpl receptor, full length, expressed on 32D cells (subclone 1A6.1) (murine, UniProt Q08351). Put plainly: cell-based or functional assay.

In turn, “25 kd canine Mpl ligand purified from aplastic canine plasma” registered a 1A6.1 cell growth, fraction diluted 1:45000 (cells per well) in assay [1] of 6000. For the same molecule, the Human Meg assay (units/mg) in assay [2] came to 1.4e+10 units/mg. The molecule also returned a 1A6.1 assay (units/mg) in assay [3] of 1.05e+10 units/mg.
In turn, “31 kd canine Mpl ligand purified from aplastic canine plasma” showed a Human Meg assay (units/mg) in assay [2] of 5.7e+09 units/mg. The same molecule gave a 1A6.1 assay (units/mg) in assay [3] of 6.52e+09 units/mg.

B1: human MGDF-3 (amino acids 1-265 of SEQ ID NO: 27) (ligand)
chain: SPAPPACDLRVLSKLLRDSHVLHSRLSQCPEVHPLPTPVLLPAVDFSLGEWKTQMEETKAQDILGAVTLLLEGVMAARGQLGPTCLSSLLGQLSGQVRLLLGALQSLLGTQLPPQGRTTAHKDPNAIFLSFQHLLRGKDFWIVGDKLHCLSQNYWLWASEVAAGIQSQDSWSAEPNLQVPGPNPRIPEQDTRTLEWNSWTLSWTLTQDPRSPGHFLRNIRHRLPATQPPAWIFSFPNPSSYWTVYALPSSTHLAHPCGPAPPPAS
As for B1, the “Megakaryocytes per Well (-mur-MPL-X)” value in assay [4] was 2 megakaryocytes per well. For the same molecule, the “U/ml (- mur-MPL-X), 1A6.1 cells” value in assay [5] worked out at 0 U/ml.

B2: human MGDF-2 (amino acids 1-174 of SEQ ID NO: 25) (ligand)
chain: SPAPPACDLRVLSKLLRDSHVLHSRLSQCPEVHPLPTPVLLPAVDFSLGEWKTQMEETKAQDILGAVTLLLEGVMAARGQLGPTCLSSLLGQLSGQVRLLLGALQSLLGTQLPPQGRTTAHKDPNAIFLSFQHLLRGKVRFLMLVGGSTLCVR
Take B2: the “Megakaryocytes per Well (-mur-MPL-X)” value in assay [4] was 100 megakaryocytes per well. Moreover, the “U/ml (- mur-MPL-X), 1A6.1 cells” value in assay [5] came out at 12800 U/ml.

Values taken from patent US5766581, “Method for treating mammals with monopegylated proteins that stimulates megakaryocyte growth and differentiation” (Amgen Inc., dated 1998).
